Laboratory results from the Immune Epitope Database (IEDB).

What was measured:
[1] = molecular target: HLA-A*23:01; experiment: IEDB peptide-MHC binding, purified MHC/competitive/radioactivity; filed as Kd, often an IC50 or EC50 that approximates it; ≥ and ≤ were set here for values at or beyond the usual limits of such assays
[2] = molecular target: HLA-A*24:02; experiment: as above
[3] = molecular target: HLA-A*29:02; experiment: as above
[4] = molecular target: HLA-A*01:01; experiment: as above
[5] = molecular target: HLA-A*30:02; experiment: as above
[6] = molecular target: HLA-B*15:01; experiment: as above
[7] = molecular target: HLA-B*08:01; experiment: as above
[8] = molecular target: HLA-B*44:02; experiment: as above
[9] = molecular target: HLA-B*44:03; experiment: as above
[10] = molecular target: HLA-A*02:01; experiment: IEDB peptide-MHC binding, purified MHC/competitive/fluorescence; ≥ and ≤ were set here for values at or beyond the usual limits of such assays
[11] = molecular target: HLA-A*24:02; experiment: as above
[12] = molecular target: HLA-B*18:01; experiment: IEDB peptide-MHC binding, purified MHC/direct/fluorescence; filed as Kd, often an IC50 or EC50 that approximates it; ≥ and ≤ were set here for values at or beyond the usual limits of such assays
[13] = molecular target: HLA-B*44:02; experiment: as above
[14] = molecular target: HLA-B*07:02; experiment: IEDB peptide-MHC binding, purified MHC/competitive/radioactivity; filed as Kd, often an IC50 or EC50 that approximates it; ≥ and ≤ were set here for values at or beyond the usual limits of such assays
[15] = molecular target: HLA-A*02:06; experiment: as above; conditions: source organism: Dengue virus 2 Jamaica/1409/1983
[16] = molecular target: HLA-B*40:01; experiment: IEDB peptide-MHC binding, purified MHC/direct/fluorescence; filed as Kd, often an IC50 or EC50 that approximates it; ≥ and ≤ were set here for values at or beyond the usual limits of such assays; conditions: source organism: Amur virus
[17] = source organism: Mammarenavirus brazilense
[18] = source organism: Dengue virus 1 Brazil/97-11/1997
[19] = source organism: Vaccinia virus WR
[20] = source organism: Mammarenavirus juninense
[21] = source organism: Sudan ebolavirus
[22] = source organism: Dengue virus 3 Martinique/1243/1999
[23] = source organism: Lymphocytic choriomeningitis virus (strain Armstrong)
[24] = source organism: Zaire ebolavirus
[25] = source organism: Dengue virus 2 Jamaica/1409/1983
[26] = source organism: Dengue virus 4 Philippines/H241/1956
[27] = source organism: Vaccinia virus Copenhagen

LSHLSLGLI
Kd [1, 17]: 7760 nM | Kd [2, 17]: ≥ 21000 nM | Kd [3, 17]: 9100 nM

LSKSEFNTY
Kd [4, 18]: 2740 nM | Kd [5, 18]: 11.1 nM | Kd [6, 18]: 7.88 nM

LWTTLLSLTF
Kd [1, 18]: 20.6 nM | Kd [2, 18]: 14.3 nM

MLKLQKCVM
Kd [7, 19]: 9.25 nM

MLMLVNDRLL
Kd [1, 20]: 11400 nM | Kd [2, 20]: ≥ 70300 nM | Kd [3, 20]: ≥ 20000 nM

NEHKSTWHY
Kd [8, 18]: 84.1 nM | Kd [9, 18]: 173 nM

NEMVLLTMK
Kd [8, 18]: 865 nM

NEVHTWTEQ
Kd [9, 18]: 6680 nM

NITDKINQI
IC50 [10, 21]: 43700 nM | IC50 [11, 21]: 5960 nM

QEGAMHTAL
Kd ([12]; source organism: Dengue virus): 39.5 nM | Kd ([13]; source organism: Dengue virus): 6660 nM

QHNAAGIAW
IC50 [11, 21]: 21200 nM

QKEGVFHTMW
Kd [8, 22]: 181 nM | Kd [9, 22]: 411 nM

QYLIIQNRTW
Kd [1, 23]: 57.4 nM | Kd [2, 23]: 693 nM | Kd [3, 23]: 687 nM

RFEVKKRDG
IC50 [10, 24]: ≥ 568000 nM | IC50 [11, 24]: ≥ 81100 nM

RKKARSTPF
Kd [7, 25]: 413 nM

RLKMDKLEL
Kd [7, 22]: 556 nM

RNIARHLAL
Kd [7, 19]: 3.24 nM

RPMFAVGLL
Kd [14, 18]: 5.06 nM

RPQPMEHKY
Kd [5, 18]: 134 nM

RPTPTGTVMD
Kd [14, 22]: 41.5 nM

RRLTSREVLL
Kd [7, 18]: 5480 nM

RSMPGTRRVM
Kd [14, 22]: 91.9 nM

RTPQDNQLIY
Kd [4, 26]: 919 nM | Kd [5, 26]: 198 nM

SARGLCAHI
Kd [6, 19]: 1220 nM

SFEEMYRHI
IC50 [11, 24]: 6110 nM

SFRRFVNKL
Kd [7, 27]: 1380 nM

SGTETKITF
IC50 [11, 27]: 11300 nM

SIILEFFLI
Kd [15]: 1.59 nM | Kd [2, 25]: 1250 nM

SLIYLCTFM
Kd [6, 19]: 4.45 nM

SLKIMIQSM
Kd [7, 19]: 2.48 nM

SMKYLMLLF
Kd [6, 19]: 3.84 nM

SPMPRHHSI
Kd [7, 19]: 1110 nM

SRRYRCSFA
Kd [7, 19]: 52.3 nM

SSQVKCCHY
Kd [6, 19]: 347 nM

SYGEYQSYS
IC50 [11, 24]: 52300 nM

TEQMAPHHKI
Kd [8, 26]: 41.7 nM

TLGYCMIRW
IC50 [11, 19]: ≥ 105000 nM

TSGKYFSTF
Kd [6, 27]: 85.9 nM

TTIRYQATG
IC50 [11, 24]: 58300 nM

VHSQGREAA
IC50 [10, 24]: 40400 nM | IC50 [11, 24]: 1900 nM

VLLDYGLHG
Kd [6, 19]: ≥ 27500 nM

VPLQWIASA
Kd ([14]; source organism: Dengue virus 3 Sri Lanka/1266/2000): 178 nM

VRSETKQKF
IC50 ([11]; source organism: Vaccinia virus): 1820 nM

WQQVPFCSH
Kd [6, 18]: 102 nM

WYAQIQPHW
Kd [1, 25]: 62.1 nM | Kd [2, 25]: 24.3 nM

YECETYKEL
Kd ([12]; source organism: Amur virus): 5.3 nM | Kd [16]: 14.8 nM | Kd ([13]; source organism: Amur virus): ≥ 20000 nM

YGANYFLQI
Kd [6, 19]: 1760 nM

YLFIRKNVI
Kd [7, 27]: 0.706 nM

YQVKTETTIL
Kd [6, 26]: 43.1 nM
